Data on 1 protein can be found in article PMC5057104, “The unravelling of the complex pattern of tyrosinase inhibition” (Scientific Reports, 2016).

Substrate in data set [1]: N[C@@H](Cc1ccc(O)c(O)c1)C(=O)O
Put plainly: Kinetic analysis of tyrosinase (Lineweaver-Burk plots). It is filed as biochemical, Bacillus megaterium. Particulars: other: compound as TyrBm natural substrate; pH 7.4; 40.0 °C.

Substrate in data set [2]: N[C@@H](Cc1ccc(O)cc1)C(=O)O
The data set is described as above. The following applies: other: compound as TyrBm natural substrate; pH 7.4; 40.0 °C. It is filed as biochemical, Bacillus megaterium.

B1: TyrBm (tyrosinase from Bacillus megaterium) (Priestia megaterium) (protein)
chain: MSNKYRVRKNVLHLTDTEKRDFVRTVLILKEKGIYDRYIAWHGAAGKFHTPPGSDRNAAHMSSAFLPWHREYLLRFERDLQSINPEVTLPYWEWETDAQMQDPSQSQIWSADFMGGNGNPIKDFIVDTGPFAAGRWTTIDEQGNPSGGLKRNFGATKEAPTLPTRDDVLNALKITQYDTPPWDMTSQNSFRNQLEGFINGPQLHNRVHRWVGGQMGVVPTAPNDPVFFLHHANVDRIWAVWQIIHRNQNYQPMKNGPFGQNFRDPMYPWNTTPEDVMNHRKLGYVYDIELRKSKRSS
notes: made in house; host or cells: Escherichia coli BL21
In the case of B1, in data set [1], the Michaelis-Menten constant (Km) was 240 ± 20 µM, the Vmax was found to be 30.3 µmol/min/mg, the kcat was found to be 17.8 s⁻¹ and the specificity constant (kcat/Km) was 74200 M⁻¹ s⁻¹. Moreover, in data set [2], the Km stood at 82 ± 6 µM, the Vmax came to 3.62 µmol/min/mg, the kcat came out at 2.1 s⁻¹ and the kcat/Km amounted to 25600 M⁻¹ s⁻¹.

As usually defined, the Km is the substrate concentration at which the rate is half of its maximum. A word on the Vmax: it is the rate approached at saturating substrate. Broadly, the kcat is the maximal rate divided by the concentration of active sites. In general, kcat/Km refers to the second-order rate constant that governs catalysis at low substrate concentration.
